From patent publication US20160195541A1
“And” between values parts separate entries of the source, which are not always exact repeats. Equal entries are not always repeated.

How the values were obtained:
[1] = biological target: aggregated human IgG (aggregated Beriglobin, aggregated fraction isolated by size exclusion chromatography) (human); assay: FACS competition on Raji cells, mean of 25 experiments
[2] = biological target: aggregated human IgG (aggregated Beriglobin, aggregated fraction isolated by size exclusion chromatography) (human); assay: apparent KD, FACS competition on Raji cells, mean of tests #18-25
[3] = biological target: aggregated human IgG (aggregated Beriglobin, aggregated fraction isolated by size exclusion chromatography) (human); assay: apparent KD, FACS competition on Raji cells, mean of 25 experiments
[4] = biological target: aggregated human IgG (aggregated Beriglobin, aggregated fraction isolated by size exclusion chromatography) (human); assay: apparent KA, Langmuir fit of FACS competition on Raji cells (FACS007)
[5] = biological target: aggregated human IgG (aggregated Beriglobin, aggregated fraction isolated by size exclusion chromatography) (human); assay: apparent KD, Langmuir fit of FACS competition on Raji cells (FACS007)
[6] = biological target: aggregated human IgG (aggregated Beriglobin, aggregated fraction isolated by size exclusion chromatography) (human); assay: apparent KA, Langmuir fit of FACS competition on Raji cells (FACS021)
[7] = biological target: aggregated human IgG (aggregated Beriglobin, aggregated fraction isolated by size exclusion chromatography) (human); assay: apparent KD, Langmuir fit of FACS competition on Raji cells (FACS021)
[8] = biological target: aggregated human IgG (aggregated Beriglobin, aggregated fraction isolated by size exclusion chromatography) (human); assay: apparent KD, FACS competition on Raji cells, mean of tests #1-17 without #4 and #6
[9] = biological target: aggregated human IgG (aggregated Beriglobin, aggregated fraction isolated by size exclusion chromatography) (human); assay: apparent KD, FACS competition on Raji cells (Example 1), as told in the description
[10] = biological target: aggregated human IgG (aggregated Beriglobin, aggregated fraction isolated by size exclusion chromatography) (human); assay: FACS competition on Raji cells (FACS021), inhibition of aggregated IgG binding to cell FcγRIIB at 0.0625 µg/µL
[11] = biological target: aggregated human IgG (aggregated Beriglobin, aggregated fraction isolated by size exclusion chromatography) (human); assay: FACS competition on Raji cells (FACS021), inhibition of aggregated IgG binding to cell FcγRIIB at 0.03125 µg/µL
[12] = biological target: aggregated human IgG (aggregated Beriglobin, aggregated fraction isolated by size exclusion chromatography) (human); assay: FACS competition on Raji cells (FACS007), inhibition of aggregated IgG binding to cell FcγRIIB at 0.5 µg/µL SM101
[13] = biological target: aggregated human IgG (aggregated Beriglobin, aggregated fraction isolated by size exclusion chromatography) (human); assay: FACS competition on Raji cells (FACS007), inhibition of aggregated IgG binding to cell FcγRIIB at 0.25 µg/µL SM101
[14] = biological target: aggregated human IgG (aggregated Beriglobin, aggregated fraction isolated by size exclusion chromatography) (human); assay: FACS competition on Raji cells (FACS007), inhibition of aggregated IgG binding to cell FcγRIIB at 0.125 µg/µL SM101
[15] = biological target: aggregated human IgG (aggregated Beriglobin, aggregated fraction isolated by size exclusion chromatography) (human); assay: FACS competition on Raji cells (FACS007), inhibition of aggregated IgG binding to cell FcγRIIB at 0.0078 µg/µL SM101
[16] = biological target: aggregated human IgG (aggregated Beriglobin, aggregated fraction isolated by size exclusion chromatography) (human); assay: FACS competition on Raji cells (FACS007), inhibition of aggregated IgG binding to cell FcγRIIB at 0.0156 µg/µL SM101
[17] = biological target: aggregated human IgG (aggregated Beriglobin, aggregated fraction isolated by size exclusion chromatography) (human); assay: FACS competition on Raji cells (FACS007), inhibition of aggregated IgG binding to cell FcγRIIB at 0.0625 µg/µL SM101
[18] = biological target: aggregated human IgG (aggregated Beriglobin, aggregated fraction isolated by size exclusion chromatography) (human); assay: FACS competition on Raji cells (FACS007), inhibition of aggregated IgG binding to cell FcγRIIB at 0.03125 µg/µL SM101
[19] = biological target: aggregated human IgG (aggregated Beriglobin, aggregated fraction isolated by size exclusion chromatography) (human); assay: sigmoid logistic fit of FACS competition on Raji cells (FACS021): inhibition of aggregated IgG binding to cell FcγRIIB
[20] = biological target: aggregated human IgG (aggregated Beriglobin, aggregated fraction isolated by size exclusion chromatography) (human); assay: sigmoid logistic fit of FACS competition on Raji cells (FACS007): inhibition of aggregated IgG binding to cell FcγRIIB
[21] = biological target: aggregated human IgG (aggregated Beriglobin, aggregated fraction isolated by size exclusion chromatography) (human); assay: FACS competition control on Raji cells: constant aggregated Beriglobin, CSA in place of SM101; bound aggregated IgG detected with anti-human IgG(H+L)-PE; interaction tested for blocking: aggregated IgG with membrane-bound FcγRIIB
[22] = SM101 investigational medicinal product

Molecule: SM101 (soluble human FcγRIIB, sFcγRIIB) (from UniProt P31994 46-217) (receptor)
- IC50 [1]: 10.6 mg/L
- Kd [2]: 0.26 µM
- Kd [3]: 0.53 µM
- Ka [4]: 1.02e+06 M⁻¹
- Kd [5]: 0.99 µM
- Ka [6]: 1.35e+06 M⁻¹ and 1.11e+06 M⁻¹
- Kd [7]: 0.74 µM and 0.9 µM
- Kd [8]: 0.68 µM
- Kd [9]: 0.98 µM
- norm. Signal (% inhibition) [10, 22]: 89.6%
- norm. Signal (% inhibition) ([10]; SM101 reference standard): 87.3%
- norm. Signal (% inhibition) [11, 22]: 75.7%
- norm. Signal (% inhibition) ([11]; SM101 reference standard): 75.9%
- norm. Signal (% inhibition) [12]: 97.3%
- norm. Signal (% inhibition) [13]: 98.4%
- norm. Signal (% inhibition) [14]: 94.9%
- norm. Signal (% inhibition) [15]: 23.2%
- norm. Signal (% inhibition) [16]: 43%
- norm. Signal (% inhibition) [17]: 91.2%
- norm. Signal (% inhibition) [18]: 70.5%
- IC50 [19]: 12.9 mg/L and 16.2 mg/L
- IC50 [20]: 17.7 mg/L

B1: chicken serum albumin (protein, UniProt P19121 24-615, looked up)
Albumin: FARDAEHKSEIAHRYNDLKEETFKAVAMITFAQYLQRCSYEGLSKLVKDVVDLAQKCVANEDAPECSKPLPSIILDEICQVEKLRDSYGAMADCCSKADPERNECFLSFKVSQPDFVQPYQRPASDVICQEYQDNRVSFLGHFIYSVARRHPFLYAPAILSFAVDFEHALQSCCKESDVGACLDTKEIVMREKAKGVSVKQQYFCGILKQFGDRVFQARQLIYLSQKYPKAPFSEVSKFVHDSIGVHKECCEGDMVECMDDMARMMSNLCSQQDVFSGKIKDCCEKPIVERSQCIMEAEFDEKPADLPSLVEKYIEDKEVCKSFEAGHDAFMAEFVYEYSRRHPEFSIQLIMRIAKGYESLLEKCCKTDNPAECYANAQEQLNQHIKETQDVVKTNCDLLHDHGEADFLKSILIRYTKKMPQVPTDLLLETGKKMTTIGTKCCQLGEDRRMACSEGYLSIVIHDTCRKQETTPINDNVSQCCSQLYANRRPCFTAMGVDTKYVPPPFNPDMFSFDEKLCSAPAEEREVGQMKLLINLIKRKPQMTEEQIKTIADGFTAMVDKCCKQSDINTCFGEEGANLIVQSRATLGIGA
- Median PE-A of aggregated IgG bound to Raji cells at 0.0156 µg/µL CSA [21]: 3770
- Median PE-A of aggregated IgG bound to Raji cells at 0.03125 µg/µL CSA [21]: 3700
- Median PE-A of aggregated IgG bound to Raji cells at 0.0625 µg/µL CSA [21]: 3830
- Median PE-A of aggregated IgG bound to Raji cells at 0.125 µg/µL CSA [21]: 4140
- Median PE-A of aggregated IgG bound to Raji cells at 0.25 µg/µL CSA [21]: 4570
- Median PE-A of aggregated IgG bound to Raji cells at 0.5 µg/µL CSA [21]: 4940
- Median PE-A of aggregated IgG bound to Raji cells at the CSA concentration labelled 0'078 (0.0078 µg/µL by the series in legend paragraph 80) [21]: 4180
